Experimental data: patent US20260234254A1 (APTEVO RESEARCH AND DEVELOPMENT, published 2026)

Target: T1, recombinant monomeric CD123 ectodomain (ECD) with an affinity tag on the C-terminus (UniProt P26951 19-305)
T1 construct: extracellular domain; also called CD123 ECD; extracellular domain of CD123
T1 sequence (looked up): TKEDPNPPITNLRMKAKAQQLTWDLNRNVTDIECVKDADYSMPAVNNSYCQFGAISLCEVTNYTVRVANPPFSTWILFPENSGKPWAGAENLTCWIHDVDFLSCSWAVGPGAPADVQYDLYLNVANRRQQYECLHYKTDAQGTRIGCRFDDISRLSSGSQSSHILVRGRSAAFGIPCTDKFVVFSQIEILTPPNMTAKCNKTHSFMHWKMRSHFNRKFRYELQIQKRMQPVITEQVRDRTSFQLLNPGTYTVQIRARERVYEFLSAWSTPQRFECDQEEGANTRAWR
Assay: SPR (Biacore T200), bispecific captured by anti-human Fc F(ab')2, CD123 ECD 3-48 nM as analyte, 25 °C, 1:1 model
Description: SPR binding studies of bispecific molecules to recombinant monomeric CD123 ectodomain (ECD) were conducted at 25° C. in HBS-EP+ buffer. […] The bispecific molecules at 200 nM in HBS-EP+ buffer were captured by the immobilized anti-Fc F(ab′)2 fragment at a flow rate of 30 μL/min for 120 sec to reach a stable 2000 RU response. […] Optimal regeneration was achieved by one injection of 10 mM glycine (pH 1.7) at a flow rate of 30 μL/min for 15 sec followed by one injection of 50 mM NaOH at 30 μL/min for 15 sec. A two minute stabilization with HBS-EP+ buffer was completed before the subsequent run.
Sensorgrams obtained from kinetic SPR measurements were analyzed by the double subtraction method. The signal from the reference flow cell was subtracted from the analyte binding response obtained from flow cells with immobilized or captured ligands. Buffer reference responses were then averaged from multiple injections. […] All sensorgrams were fitted using a simple one-to-one binding model.

Kd: 11.4 nM
koff: 0.00205 s⁻¹
kon: 179000 M⁻¹ s⁻¹
B1: OMT1 VHVL x TSC456 scFv-Fc-scFv TRI129 (bispecific antibody)
chain: EVQLLESGGGLVQPGGSLRLSCAASGFTFSSYGMSWVRQAPGKGLEGVSAISGSGGSTYYADSVKGRFTISRDNSKNTLYLQMNSLRAEDTAVYYCAKEKLRYFDWLSDAFDIWGQGTMVTVSSGGGGSGGGGSGGGGSGGGGSDIVMTQSPDSLAVSLGERATINCKSSHSVLYSSNNKNYLAWYQQKPGQPPKLLIYWASTRESGVPDRFSGSGSGTDFTLTISSLQAEDVAVYYCQQYYSTPPTTFGGGTKVEIKSSSEPKSSDKTHTCPPCPAPEAAGAPSVFLFPPKPKDTLMISRTPEVTCVVVDVSHEDPEVKFNWYVDGVEVHNAKTKPREEQYNSTYRVVSVLTVLHQDWLNGKEYKCAVSNKALPAPIEKTISKAKGQPREPQVYTLPPSRDELTKNQVSLTCLVKGFYPSDIAVEWESNGQPENNYKTTPPVLDSDGSFFLYSKLTVDKSRWQQGNVFSCSVMHEALHNHYTQKSLSLSPGSGGGGSGGGGSGGGGSPSQVQLVQSGPEVKKPGSSVKVSCKASGYTFSRSTMHWVRQAPGQGLEWIGYINPSSAYTNYNQKFKDRVTITADKSTSTAYMELSSLRSEDTAVYYCARPQVHYDYNGFPYWGQGTLVTVSSGGGGSGGGGSGGGGSGGGGSDIQMTQSPSTLSASVGDRVTMTCSASSSVSYMNWYQQKPGKAPKRWIYDSSKLASGVPSRFSGSGSGTDYTLTISSLQPDDFATYYCQQWSRNPPTFGGGTKVEIKRS
notes: Single-chain scFv-Fc-scFv, anti-CD123 (OMT1, VH-VL) x anti-CD3ε (TSC456)
